Laboratory results as given in patent publication US9618524B2, “Method, composition, isolation and identification of a plaque particle and related biomarker” (Plaxgen Inc., priority 2012, dated 2017).

B1: Kallistatin (protein)
chain: QLHVEHDGESCSNSSHQQILETGEGSPSLKIAPANADFAFRFYYLIASETPGKNIFFSPLSISAAYAMLSLGACSHSRSQILEGLGFNLTELSESDVHRGFQHLLHTLNLPGHGLETRVGSALFLSHNLKFLAKFLNDTMAVYEAKLFHTNFYDTVGTIQLINDHVKKETRGKIVDLVSELKKDVLMVLVNYIYFKALWEKPFISSRTTPKDFYVDENTTVRVPMMLQDQEHHWYLHDRYLPCSVLRMDYKGDATVFFILPNQGKMREIEEVLTPEMLMRWNNLLRKRNFYKKLELHLPKFSISGSYVLDQILPRLGFTDLFSKWADLSGITKQQKLEASKSFHKATLDVDEAGTEAAAATSFAIKFFSAQTNRHILRFNRPFLVVIFSTSTQSVLFLGKVVDPTKP
B2: Isoform 2 of Apolipoprotein L1 (protein)
chain: EEAGARVQQNVPSGTDTGDPQSKPLGDWAAGTMDPESSIFIEDAIKYFKEKVSTQNLLLLLTDNEAWNGFVAAAELPRNEADELRKALDNLARQMIMKDKNWHDKGQQYRNWFLKEFPRLKSELEDNIRRLRALADGVQKVHKGTTIANVVSGSLSISSGILTLVGMGLAPFTEGGSLVLLEPGMELGITAALTGITSSTMDYGKKWWTQAQAHDLVIKSLDKLKEVREFLGENISNFLSLAGNTYQLTRGIGKDIRALRRARANLQSVPHASASRPRVTEPISAESGEQVERVNEPSILEMSRGVKLTDVAPVSFFLVLDVVYLVYESKHLHEGAKSETAEELKKVAQELEEKLNILNNNYKILQADQEL
B3: Serum amyloid A-4 protein (protein)
chain: ESWRSFFKEALQGVGDMGRAYWDIMISNHQNSNRYLYARGNYDAAQRGPGGVWAAKLISRSRVYLQGLIDCYLFGNSSTVLEDSKSNEKAEEWGRSGKDPDRFRPDGLPKKY
B4: Corticosteroid-binding globulin (protein)
chain: MDPNAAYVNMSNHHRGLASANVDFAFSLYKHLVALSPKKNIFISPVSISMALAMLSLGTCGHTRAQLLQGLGFNLTERSETEIHQGFQHLHQLFAKSDTSLEMTMGNALFLDGSLELLESFSADIKHYYESEVLAMNFQDWATASRQINSYVKNKTQGKIVDLFSGLDSPAILVLVNYIFFKGTWTQPFDLASTREENFYVDETTVVKVPMMLQSSTISYLHDSELPCQLVQMNYVGNGTVFFILPDKGKMNTVIAALSRDTINRWSAGLTSSQVDLYIPKVTISGVYDLGDVLEEMGIADLFTNQANFSRITQDAQLKSSKVVHKAVLQLNEEGVDTAGSTGVTLNLTSKPIILRFNQPFIIMIFDHFTWSSLFLARVMNPV
B5: Carboxypeptidase N subunit 2 (protein)
chain: CPMGCDCFVQEVFCSDEELATVPLDIPPYTKNIIFVETSFTTLETRAFGSNPNLTKVVFLNTQLCQFRPDAFGGLPRLEDLEVTGSSFLNLSTNIFSNLTSLGKLTLNFNMLEALPEGLFQHLAALESLHLQGNQLQALPRRLFQPLTHLKTLNLAQNLLAQLPEELFHPLTSLQTLKLSNNALSGLPQGVFGKLGSLQELFLDSNNISELPPQVFSQLFCLERLWLQRNAITHLPLSIFASLGNLTFLSLQWNMLRVLPAGLFAHTPCLVGLSLTHNQLETVAEGTFAHLSNLRSLMLSYNAITHLPAGIFRDLEELVKLYLGSNNLTALHPALFQNLSKLELLSLSKNQLTTLPEGIFDTNYNLFNLALHGNPWQCDCHLAYLFNWLQQYTDRLLNIQTYCAGPAYLKGQVVPALNEKQLVCPVTRDHLGFQVTWPDESKAGGSWDLAVQERAARSQCTYSNPEGTVVLACDQAQCRWLNVQLSPQQGSLGLQYNASQEWDLRSSCGSLRLTVSIEARAAGP
B6: Leucine-rich alpha-2-glycoprotein (protein)
chain: VTLSPKDCQVFRSDHGSSISCQPPAEIPGYLPADTVHLAVEFFNLTHLPANLLQGASKLQELHLSSNGLESLSPEFLRPVPQLRVLDLTRNALTGLPPGLFQASATLDTLVLKENQLEVLEVSWLHGLKALGHLDLSGNRLRKLPPGLLANFTLLRTLDLGENQLETLPPDLLRGPLQLERLHLEGNKLQVLGKDLLLPQPDLRYLFLNGNKLARVAAGAFQGLRQLDMLDLSNNSLASVPEGLWASLGQPNWDMRDGFDISGNPWICDQNLSDLYRWLQAQKDKMFSQNDTRCAGPEAVKGQTLLAVAKSQ
B7: Pigment epithelium-derived factor (protein)
chain: QNPASPPEEGSPDPDSTGALVEEEDPFFKVPVNKLAAAVSNFGYDLYRVRSSTSPTTNVLLSPLSVATALSALSLGAEQRTESIIHRALYYDLISSPDIHGTYKELLDTVTAPQKNLKSASRIVFEKKLRIKSSFVAPLEKSYGTRPRVLTGNPRLDLQEINNWVQAQMKGKLARSTKEIPDEISILLLGVAHFKGQWVTKFDSRKTSLEDFYLDEERTVRVPMMSDPKAVLRYGLDSDLSCKIAQLPLTGSMSIIFFLPLKVTQNLTLIEESLTSEFIHDIDRELKTVQAVLTVPKLKLSYEGEVTKSLQEMKLQSLFDSPDFSKITGKPIKLTQVEHRAGFEWNEDGAGTTPSPGLQPAHLTFPLDYHLNQPFIFVLRDTDTGALLFIGKILDPRGP
B8: Insulin-like growth factor-binding protein complex (protein)
chain: ADPGTPGEAEGPACPAACVCSYDDDADELSVFCSSRNLTRLPDGVPGGTQALWLDGNNLSSVPPAAFQNLSSLGFLNLQGGQLGSLEPQALLGLENLCHLHLERNQLRSLALGTFAHTPALASLGLSNNRLSRLEDGLFEGLGSLWDLNLGWNSLAVLPDAAFRGLGSLRELVLAGNRLAYLQPALFSGLAELRELDLSRNALRAIKANVFVQLPRLQKLYLDRNLIAAVAPGAFLGLKALRWLDLSHNRVAGLLEDTFPGLLGLRVLRLSHNAIASLRPRTFKDLHFLEELQLGHNRIRQLAERSFEGLGQLEVLTLDHNQLQEVKAGAFLGLTNVAVMNLSGNCLRNLPEQVFRGLGKLHSLHLEGSCLGRIRPHTFTGLSGLRRLFLKDNGLVGIEEQSLWGLAELLELDLTSNQLTHLPHRLFQGLGKLEYLLLSRNRLAELPADALGPLQRAFWLDVSHNRLEALPNSLLAPLGRLRYLSLRNNSLRTFTPQPPGLERLWLEGNPWDCGCPLKALRDFALQNPSAVPRFVQAICEGDDCQPPAYTYNNITCASPPEVVGLDLRDLSEAHFAPC

Legend:
Test in all cases: Mass spectroscopy proteomics, semi-quantitative binding affinity of serum proteins (plaqueproteome, Table 2)
Details in all cases: higher number = stronger affinity
[1] = test system: High Density cholesterol (Chl Large) plaque particles; design: species or system human
Method in brief: (§1)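 Serum or plasma from atherosclerotic subjects, diluted to 50% in PBS, was incubated with cholesterol aggregates (30 μg per 1 mL reaction) at 37° C for 1 hr. Small and large cholesterol plaque particles were sorted by flow cytometry gating, trypsin-digested and analysed by MS/MS against a human UniProt database.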

[2] = test system: Low density cholesterol (Chl small) plaque particles; design: species or system human
Method in brief: as §1

[3] = biological target: T1, alpha-synuclein plaque particles (Homo sapiens, UniProt P37840)
T1 construct: 140 amino acids polypeptide
Method in brief: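 AD-subject plasma or serum (800 μL of 50%) mixed with 30 μg preformed alpha-synuclein aggregates for 1 h at 37 °C; Thioflavin S-positive particles isolated by flow sorting. After reduction, acrylamide alkylation and overnight tryptic digestion, serum proteins identified by MS/MS with Sequest and Scaffold.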

[4] = biological target: T2, Abeta-42 plaque particles (Homo sapiens, UniProt P05067)
T2 construct: Abeta 1-42
Method in brief: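 AD patient serum or plasma (50% in PBS) was incubated with Abeta-42 aggregates (30 μg) for 1 h at 37 °C, then stained with Thioflavin S for 30 min. Labeled particles were FACS-sorted, trypsin/Lys-C digested overnight and analyzed by MS/MS. Sequest searched human UniProt; Scaffold/Protein Prophet validated the identifications.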

[5] = test system: Tau plaque particles; design: species or system human
Method in brief: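 Serum or plasma proteins captured on Thioflavin S-labelled Tau plaque particles (Tau-74, Tau-275 oligomers preformed in PBS at 37° C for 2 h; 1 h co-incubation at 37° C) were isolated by FACS sorting, then tryptically digested and identified by MS/MS (Sequest, human UniProt, strict trypsin).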

Molecule | Semi-quantitative analysis of proteins binding to different plaque particles: Chl Large [1] | Semi-quantitative analysis of proteins binding to different plaque particles: Chl small [2] | Semi-quantitative analysis of proteins binding to different plaque particles: Synuclein [3] | Semi-quantitative analysis of proteins binding to different plaque particles: Abeta-42 [4] | Semi-quantitative analysis of proteins binding to different plaque particles: Tau [5]
B1 | 1 | 0 | 0 | 0 | 1
B2 | 1 | 1 | 0 | 0 | 2
B3 | 1 | 1 | 1 | 2 | 4
B4 | 2 | 3 | 1 | 0 | 1
B5 | 0 | 1 | 2 | 0 | 1
B6 | 2 | 3 | 2 | 2 | 1
B7 | 4 | 3 | 4 | 5 | 4
B8 | 1 | 1 | 0 | 0 | 1
